Numbering of substitutions follows the chain as printed. Where two headings read alike, the source gives them in different places.
Legend:
[1] = target: T1, SR344 (N-terminal 1st to 344th amino acids of soluble human IL-6R) (human, UniProt P08887 20-344, limits assumed); assay: cell-based or functional assay
T1 sequence (looked up): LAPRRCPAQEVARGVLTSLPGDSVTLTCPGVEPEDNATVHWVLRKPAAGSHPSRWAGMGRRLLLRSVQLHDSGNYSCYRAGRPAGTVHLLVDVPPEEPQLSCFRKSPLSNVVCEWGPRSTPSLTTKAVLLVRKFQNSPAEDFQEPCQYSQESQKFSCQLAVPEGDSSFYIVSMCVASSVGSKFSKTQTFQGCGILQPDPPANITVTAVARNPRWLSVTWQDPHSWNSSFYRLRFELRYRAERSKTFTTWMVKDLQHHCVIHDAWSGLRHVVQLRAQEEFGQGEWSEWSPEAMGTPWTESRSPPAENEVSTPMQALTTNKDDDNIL

[2] = target: T2, recombinant human IL-6R sR (R&D systems) (human, UniProt P08887 20-358); assay: SPR (Biacore T100), antibody captured on Protein A, rhIL-6sR as analyte, 25 C
T2 construct: Bought soluble receptor; also called rhIL-6sR; rhIL-s6R
T2 sequence (looked up): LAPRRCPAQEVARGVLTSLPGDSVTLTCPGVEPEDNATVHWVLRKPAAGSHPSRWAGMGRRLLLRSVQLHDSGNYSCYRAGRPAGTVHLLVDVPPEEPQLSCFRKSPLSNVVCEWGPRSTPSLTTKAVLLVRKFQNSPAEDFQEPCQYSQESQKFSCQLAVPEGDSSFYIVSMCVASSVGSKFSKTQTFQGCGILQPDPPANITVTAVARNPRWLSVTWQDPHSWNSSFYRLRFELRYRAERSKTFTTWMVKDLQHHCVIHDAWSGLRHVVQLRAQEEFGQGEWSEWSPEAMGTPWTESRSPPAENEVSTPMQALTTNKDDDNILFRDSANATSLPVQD
Description: The antigen-antibody interaction was measured by immobilizing 1,800 to 2,600 RU (resonance units) of rec-Protein A (Zymed) (hereinafter “Protein A”) onto a sensor chip, binding various antibodies onto the chip, and then flowing the antigen over the chip as an analyte. Various concentrations of recombinant human IL-6R sR (R&D systems) (hereinafter “rhIL-6sR”) were used as the antigen. All measurements were carried out at 25° C. The kinetic parameters, association rate constant kₐ (1/Ms) and dissociation rate constant kd (1/s) were calculated from the sensorgrams obtained by measurement. Then, KD (M) was determined based on the rate constants. The respective parameters were determined using Biacore T100 Evaluation Software (Biacore).

[3] = target: T3, soluble human FcRn (complex of FcRn and β2-microglobulin) (human, UniProt P55899 24-290; P16213 21-119); assay: SPR (Biacore 3000), antibody captured on Protein L or anti-human kappa chain antibody, human FcRn as analyte, pH 6.0, steady state affinity
T3 construct: also called hFcRn; copies: 1 + 1
Description: (§1) The binding to human FcRn was assessed using Biacore 3000. An antibody was bound to Protein L or rabbit anti-human IgG Kappa chain antibody immobilized onto a sensor chip, human FcRn was added as an analyte for interaction with the antibody, and the affinity (KD) was calculated from the amount of bound human FcRn. Specifically, Protein L or rabbit anti-human IgG Kappa chain antibody was immobilized onto sensor chip CM5 (Biacore) by the amine coupling method using 50 mM Na-phosphate buffer (pH 6.0) containing 150 mM NaCl as the running buffer. Then, an antibody was diluted with a running buffer containing 0.02% Tween20, and injected to be bound to the chip. Human FcRn was then injected and the binding activity of the human FcRn to antibody was assessed.
(§2) The affinity was computed using BlAevaluation Software. The obtained sensorgram was used to calculate the amount of hFcRn bound to the antibody immediately before the end of human FcRn injection. The affinity of the antibody for human FcRn was calculated by fitting with the steady state affinity method.

[4] = target: T4, hFcγRIIIaV-His6 (human-derived Fcγ receptor IIIa, Val) (human, UniProt P08637 17-208, limits assumed); assay: SPR (Biacore T100), hFcγRIIIaV-His6 immobilized on CM5, antibody as analyte at 250 µg/ml
T4 construct: also called FcγRIIIa (Val); not shown: His6 tag
Description: The FcγRIIIa binding was assessed by the procedure described below. […] The amounts of bound antibody were compared. […] FcγRIIIa was immobilized onto the sensor chip CM5 (Biacore) by the amine coupling method. […] The running buffer used was HBS-EP+, and the flow rate was 5 μl/min. The sample concentration was adjusted to 250 μg/ml using HBS-EP+. The analysis included two steps: two minutes of association phase where 10 μl of an antibody solution was injected and the subsequent four minutes of dissociation phase where the injection was switched with HBS-EP+. After the dissociation phase, the sensor chip was regenerated by injecting 20 μl of 5 mM hydrochloric acid. The association, dissociation, and regeneration constitute one analysis cycle. Various antibody solutions were injected to obtain sensorgrams. […] 1999 August; 29(8):2613-24.

[5] = target: T5, human-derived Fcγ receptor IIb (Recombinant Human FcRIIB/C, R&D systems) (human, UniProt P31994 46-217, limits assumed); assay: SPR (Biacore T100), FcγRIIb immobilized on CM5, antibody as analyte at 200 µg/ml, 25 C
T5 construct: Bought recombinant protein, construct not described; also called FcγRIIb
T5 sequence (looked up): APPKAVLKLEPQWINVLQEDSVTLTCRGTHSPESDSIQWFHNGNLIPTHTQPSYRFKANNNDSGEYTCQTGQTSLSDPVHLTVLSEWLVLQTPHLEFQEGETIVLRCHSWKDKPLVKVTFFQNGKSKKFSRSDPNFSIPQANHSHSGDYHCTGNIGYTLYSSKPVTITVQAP
Description: The FcγRIIb binding was assessed by the procedure described below. […] The amounts of bound antibody were compared. […] FcγRIIb was immobilized onto the sensor chip CM5 (Biacore) by the amine coupling method. The final amount of immobilized FcγRIIb was about 4,300 RU. Then, the running buffer was injected until the baseline was stabilized. The measurement was carried out after the baseline was stabilized. […] The running buffer used was HBS-EP+ (10 mM HEPES, 0.15M NaCl, 3 mM EDTA, 0.05% v/v Surfactant P20), and the flow rate was 20 μl/min. The measurement temperature was 25° C. The concentration of each IgG or modified form thereof was adjusted to 200 μg/ml. 20 μl of an analyte was injected and allowed to interact with the immobilized FcγRIIb. After interaction, the analyte was dissociated from FcγRIIb and the sensor chip was regenerated by injecting 200 μl of the running buffer. […] This series of injection was repeated twice.

[6] = target: T6, soluble GPC3 core polypeptide (human, UniProt P51654 25-563); assay: competitive ELISA on plate-immobilized soluble GPC3 core polypeptide; competitor: biotinylated H0L0 antibody at 0.3 µg/mL
T6 construct: also called soluble GPC3 core protein; soluble glypican-3 core
Description: 100 μl of the polypeptide solution was added to each well of a 96-well plate. […] After 200 μl of blocking buffer was added, the plate was blocked at 4° C. overnight or longer. […] The plate was incubated at room temperature for one hour, and then washed five times with washing buffer using SkanWasher 400 (Molecular Devices). Goat anti-streptavidin alkaline phosphatase (Zymed) was 20,000-times diluted with substrate buffer and added to the plate at 100 μl/well. The plate was incubated at room temperature for one hour, and then washed five times with washing buffer using SkanWasher 400. The concentration of phosphatase substrate (Sigma) was adjusted to 1 mg/ml using the substrate buffer, and the solution was added to the plate at 100 μl/well. The plate was incubated for one hour.

[7] = target: T6, soluble GPC3 core polypeptide; assay: competitive ELISA on plate-immobilized soluble GPC3 core polypeptide; competitor: biotinylated GPC3-H2L2 antibody at 0.3 µg/mL
Description: The binding activities of prepared antibodies were determined by competitive ELISA. […] The plates were incubated at 4° C. for 30 minutes or more for blocking. […] The plates were incubated at room temperature for one hour, and then washed five times with washing buffer using SkanWasher 400 (Molecular Devices). 100 μl of goat anti streptavidin alkaline phosphatase (Zymed) 20,000-times diluted with substrate buffer was added to each well. The plates were incubated at room temperature for one hour, and then washed five times with washing buffer using SkanWasher 400. Phosphatase Substrate (Sigma) was prepared at 1 mg/ml using substrate buffer, and added to each well (100 μl). The plates were incubated for one hour.

[8] = target: T3, soluble human FcRn (complex of FcRn and …); assay: SPR (Biacore 3000), antibody captured on Protein L or anti-human kappa chain antibody, human FcRn as analyte, pH 6.0, steady state affinity; remark: listed apart in the source
Description: as §1, §2

T6 sequence (P51654 other isoform, or with tags, fused parts or gaps limits assumed): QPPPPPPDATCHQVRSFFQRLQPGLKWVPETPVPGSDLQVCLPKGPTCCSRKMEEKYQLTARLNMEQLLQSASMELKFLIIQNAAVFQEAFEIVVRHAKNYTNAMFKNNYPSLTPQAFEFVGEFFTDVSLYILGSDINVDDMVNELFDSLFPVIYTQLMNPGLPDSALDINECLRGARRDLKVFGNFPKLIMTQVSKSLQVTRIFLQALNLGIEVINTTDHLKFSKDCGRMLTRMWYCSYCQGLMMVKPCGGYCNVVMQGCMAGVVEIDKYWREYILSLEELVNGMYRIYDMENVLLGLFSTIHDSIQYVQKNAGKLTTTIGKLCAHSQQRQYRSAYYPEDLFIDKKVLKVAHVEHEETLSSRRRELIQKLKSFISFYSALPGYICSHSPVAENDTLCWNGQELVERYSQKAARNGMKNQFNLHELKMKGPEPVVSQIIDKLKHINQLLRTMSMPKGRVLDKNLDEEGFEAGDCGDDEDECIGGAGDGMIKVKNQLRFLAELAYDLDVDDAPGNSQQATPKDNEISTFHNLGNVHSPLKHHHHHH
T3 sequence (P55899 24-290 limits assumed, chain 1 of 2): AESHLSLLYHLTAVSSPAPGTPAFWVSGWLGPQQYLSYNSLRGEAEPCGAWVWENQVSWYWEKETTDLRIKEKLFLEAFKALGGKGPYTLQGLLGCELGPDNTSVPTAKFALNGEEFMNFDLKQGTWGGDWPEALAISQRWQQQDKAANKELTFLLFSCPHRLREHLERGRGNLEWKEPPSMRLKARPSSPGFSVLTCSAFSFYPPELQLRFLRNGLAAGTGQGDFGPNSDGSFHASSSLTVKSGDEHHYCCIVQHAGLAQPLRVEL
T3 sequence (P16213 21-119 limits assumed, chain 2 of 2): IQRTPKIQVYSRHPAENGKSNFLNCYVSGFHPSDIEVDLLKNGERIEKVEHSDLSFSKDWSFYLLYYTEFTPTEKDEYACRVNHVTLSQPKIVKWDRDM
T4 sequence (P08637 17-208 F176V limits assumed): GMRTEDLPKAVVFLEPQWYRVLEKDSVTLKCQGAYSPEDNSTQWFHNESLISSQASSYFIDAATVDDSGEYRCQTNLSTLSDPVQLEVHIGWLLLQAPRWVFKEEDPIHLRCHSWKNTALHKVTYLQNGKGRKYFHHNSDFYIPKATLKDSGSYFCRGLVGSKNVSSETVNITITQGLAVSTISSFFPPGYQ

B1: RD-6 (antibody, V domains shown)
VH: QVQLQESGPGLVRPSQTLSLTCTVSGYSITSDHAWSWVRQPPGRGLEWIGYISYSGITTYNPSLKSRVTMLRDTSKNQFSLRLSSVTAADTAVYYCARLLARATAMDYWGQGSLVTVSS
VL: DIQMTQSPSSLSASVGDRVTITCRASQDISSYLNWYQQKPGKAPKLLIYYTSRLHSGVPSRFSGSGSGTDFTFTISSLQPEDIATYYCQQGNTLPYTFGQGTKVEIK
notes: VH assembled from the FR and CDR entries of humanized PM-1
BaF3/gp130 neutralizing activity, 100% inhibitory concentration against WT [1]: ~50 fold
Kd [2]: 0.012 nM
fold higher affinity than WT [2]: ~50 fold
koff [2]: 2.8e-05 s⁻¹
kon [2]: 2.3e+06 M⁻¹ s⁻¹

B2: WT-M14ΔGK (antibody)
heavy: QVQLQESGPGLVRPSQTLSLTCTVSGYSITSDHAWSWVRQPPGRGLEWIGYISYSGITTYNPSLKSRVTMLRDTSKNQFSLRLSSVTAADTAVYYCARSLARTTAMDYWGQGSLVTVSSASTKGPSVFPLAPSSKSTSGGTAALGCLVKDYFPEPVTVSWNSGALTSGVHTFPAVLQSSGLYSLSSVVTVPSSNFGTQTYTCNVDHKPSNTKVDKTVERKSCVECPPCPAPPVAGPSVFLFPPKPKDTLMISRTPEVTCVVVDVSHEDPEVQFNWYVDGVEVHNAKTKPREEQFNSTFRVVSVLTVVHQDWLNGKEYKCKVSNKGLPSSIEKTISKAKGQPREPQVYTLPPSREEMTKNQVSLTCLVKGFYPSDIAVEWESNGQPENNYKTTPPVLDSDGSFFLYSKLTVDKSRWQQGNVFSCSVMHEALHNHYTQKSLSLSP
light: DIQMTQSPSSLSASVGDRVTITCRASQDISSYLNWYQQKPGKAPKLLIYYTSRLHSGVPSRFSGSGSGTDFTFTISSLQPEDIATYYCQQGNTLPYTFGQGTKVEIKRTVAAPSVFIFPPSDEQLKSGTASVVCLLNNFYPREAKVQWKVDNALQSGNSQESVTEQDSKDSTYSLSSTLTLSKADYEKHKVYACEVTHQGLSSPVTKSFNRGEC
Kd [3]: 1850 nM
binding result [4]: binds
binding result [5]: binds

B3: antibody H15L4 (antibody, V domains shown)
VH: QVQLVQSGAEVKKPGASVKVSCKASGYTFTDYEMHWIRQPPGQGLEWIGAIDPKTGDTAYSQKFKGRVTLTADKSTSTAYMELSSLTSEDTAVYYCTRFYSYTYWGQGTLVTVSS
VL: DIVMTQSPLSLPVTPGEPASISCRSSQSLVHSNRNTYLHWYQQKPGQAPRLLIYKVSNRFSGVPDRFSGSGSGTDFTLKISRVEAEDVGVYYCSQNTHVPPTFGQGTKLEIK
notes: Point mutant of the anti-glypican 3 antibody H0L0
binding result [6]: binds

B4: Hspd1.8Lspd1.6 antibody (antibody, V domains shown)
VH: B3 VH with K19T, Q43E, K63S, K65Q, G66D
VL: B3 VL with S25A, Q27E, K79T, R82S, V83L, E84Q
notes: Anti-glypican 3, lowered isoelectric point; also called Hd1.8Ld1.6
binding result [6]: binds

B5: Hspu2.2Lspu2.2 antibody (antibody, V domains shown)
VH: B3 VH with Q43K, D52N, Q107R
VL: B3 VL with E17Q, S25A, Q27R, Q105R
notes: Anti-glypican 3, raised isoelectric point; also called Hu2.2Lu2.2
binding result [6]: binds

B6: GPC3_H1L1 (antibody, human IgG1, kappa, V domains shown)
VH: B3 VH with Q43K, D52N, Q107R
VL: DIVMTQSPLSLPVTPGQPASISCRASRSLVHSNRNTYLHWYQQKPGQAPRLLIYKVSNRFSGVPDRFSGSGSGTDFTLKISRVEAEDVGVYYCSQNTHVPPTFGRGTKLEIKR
notes: Anti-human GPC3 antibody
binding result [7]: binds

B7: GPC3_H2L2 (antibody, human IgG1, kappa, V domains shown)
VH: B3 VH with I37V, P40A, I48M, I51L
VL: B6 VL with I2V, Q17E, A25S, R27Q, Q42L, A48S, R50Q, R105Q
IC50 (read off the curve) [7]: ~0.9 µg/mL

B8: GPC3_H3L3 (antibody, human IgG1, kappa, V domains shown)
VH: B3 VH with K19T, Q43E, Q62E, K63S, K65Q, G66D
VL: B6 VL with Q17E, R24Q, R27E, Q42L, A48S, R50Q, R105Q, L109V, K112E
IC50 (read off the curve) [7]: ~0.9 µg/mL

B9: anti-IL-31 receptor antibody H0L0 with IgG1 constant region (antibody)
heavy: not shown
VL: DIQMTQSPSSLSASVGDRVTITCRTSENIYSFLAWYQQKPGKAPKLLIYNAKTLAKGVPSRFSGSGSGTDFTLTISSLQPEDFATYYCQHHYESPLTFGGGTKVEIK
notes: Not the anti-glypican 3 antibody of the same name; also called H0L0 (IgG1)
Kd [8]: 1070 nM

Reference: patent US20150284465A1 (Chugai, published 2015)
